Reference: patent publication US20230040148 (published 2023)

B1: LbCpf1 HPRT 38115-AS-23 crRNA ; HPRT 38115-AS target (protospacer as DNA, 23 nt) (ssRNA ; dsDNA)
RNA: UAAUUUCUACUAAGUGUAGAUACACACCCAAGGAAAGACUAUGA
DNA 1: ACACACCCAAGGAAAGACTATGA
DNA 2: TCATAGTCTTTCCTTGGGTGTGT
modifications: Alt-R end modifications on 5' and 3' ends
B2: LbCpf1 HPRT 38330-AS-23 crRNA ; HPRT 38330-AS target (protospacer as DNA, 23 nt) (ssRNA ; dsDNA)
RNA: UAAUUUCUACUAAGUGUAGAUGGUUAAAGAUGGUUAAAUGAUUG
DNA 1: GGTTAAAGATGGTTAAATGATTG
DNA 2: CAATCATTTAACCATCTTTAACC
modifications: Alt-R end modifications on 5' and 3' ends

How the values were obtained:
[1] = target: T1, LbCas12a N527R/D559P/E795L (Lachnospiraceae bacterium ND2006); experiment: cell_activity; 5 uM RNP, HEK293, 48 h, T7EI; WT 80.35; PAM not stated
LbCas12a N527R/E795L [2] = target: T2, LbCas12a N527R/E795L (Lachnospiraceae bacterium ND2006); experiment: as above
LbCas12a N527R [3] = target: T3, LbCas12a N527R (Lachnospiraceae bacterium ND2006); experiment: as above
LbCas12a D559P [4] = target: T4, LbCas12a D559P (Lachnospiraceae bacterium ND2006); experiment: as above
LbCas12a E795L [5] = target: T5, LbCas12a E795L (Lachnospiraceae bacterium ND2006); experiment: as above
LbCas12a N527R/D559P = LbCas12a N527R/D559P (Lachnospiraceae bacterium ND2006); experiment: as above
LbCas12a D559P/E795L [6] = target: T6, LbCas12a D559P/E795L (Lachnospiraceae bacterium ND2006); experiment: as above
[7] = target: T1, LbCas12a N527R/D559P/E795L; experiment: cell_activity; 5 uM RNP, HEK293, 48 h, T7EI; WT 78.5; PAM not stated
LbCas12a N527R/E795L [8] = target: T2, LbCas12a N527R/E795L; experiment: as above
LbCas12a N527R [9] = target: T3, LbCas12a N527R; experiment: as above
LbCas12a D559P [10] = target: T4, LbCas12a D559P; experiment: as above
LbCas12a E795L [11] = target: T5, LbCas12a E795L; experiment: as above
LbCas12a D559P/E795L [12] = target: T6, LbCas12a D559P/E795L; experiment: as above

| Binder | activity [1] | activity (LbCas12a N527R/E795L [2]) | activity (LbCas12a N527R [3]) | activity (LbCas12a D559P [4]) | activity (LbCas12a E795L [5]) | activity (LbCas12a N527R/D559P) | activity (LbCas12a D559P/E795L [6]) | activity [7] | activity (LbCas12a N527R/E795L [8]) | activity (LbCas12a N527R [9]) | activity (LbCas12a D559P [10]) | activity (LbCas12a E795L [11]) | activity (LbCas12a D559P/E795L [12]) |
| --- | --- | --- | --- | --- | --- | --- | --- | --- | --- | --- | --- | --- | --- |
| B1 | 60.3 % cleavage | 39.3 % cleavage | 35 % cleavage | 78 % cleavage | 78.2 % cleavage | 9.39 % cleavage | 79.3 % cleavage | – | – | – | – | – | – |
| B2 | – | – | – | – | – | – | – | 28.8 % cleavage | 21.2 % cleavage | 9.6 % cleavage | 58.4 % cleavage | 79.5 % cleavage | 75.8 % cleavage |
